Test results as given in paper PMC9976900 (Nucleic Acids Research, 2022).

Key:
[1] = molecular target: T1, Unr CSD789 (A756-D990) (Drosophila, UniProt B7Z0E2 756-990); assay: NMR titration
T1 sequence (looked up): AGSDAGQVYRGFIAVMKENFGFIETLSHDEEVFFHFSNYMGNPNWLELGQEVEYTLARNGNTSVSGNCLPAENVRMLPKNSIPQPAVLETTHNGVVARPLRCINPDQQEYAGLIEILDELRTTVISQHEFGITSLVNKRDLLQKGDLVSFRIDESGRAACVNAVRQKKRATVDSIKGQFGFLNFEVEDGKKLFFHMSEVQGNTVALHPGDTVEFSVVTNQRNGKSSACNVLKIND

[2] = molecular target: T2, Unr CSD78 (A756-K922) (Drosophila, UniProt B7Z0E2 756-922); assay: NMR titration
T2 sequence (looked up): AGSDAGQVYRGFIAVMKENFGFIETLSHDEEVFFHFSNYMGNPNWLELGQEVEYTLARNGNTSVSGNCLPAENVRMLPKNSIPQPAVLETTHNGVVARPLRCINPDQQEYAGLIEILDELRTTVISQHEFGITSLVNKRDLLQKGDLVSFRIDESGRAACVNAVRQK

binding result [1]: binds
binding result [2]: binds
B1: pAbp RRM3 (G176-A263) (domain or fragment)
chain: not shown
